Literature values in article PMC3815026.

Assays:
MBL (Homo sapiens) = MBL (Homo sapiens) (UniProt P11226); test: Scatchard
C1q (Homo sapiens) = C1q (Homo sapiens) (UniProt P02745); test: Scatchard
C1q (Homo sapiens), sequence (P02745 23-245, chain 1 of 3): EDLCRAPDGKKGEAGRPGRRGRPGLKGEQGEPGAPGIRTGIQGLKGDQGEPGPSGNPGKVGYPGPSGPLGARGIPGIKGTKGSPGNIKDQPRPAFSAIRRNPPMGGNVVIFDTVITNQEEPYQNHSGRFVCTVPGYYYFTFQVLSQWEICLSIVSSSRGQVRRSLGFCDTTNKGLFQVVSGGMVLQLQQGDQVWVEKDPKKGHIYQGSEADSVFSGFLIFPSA
C1q (Homo sapiens), sequence (P02746 28-253, chain 2 of 3, further chain): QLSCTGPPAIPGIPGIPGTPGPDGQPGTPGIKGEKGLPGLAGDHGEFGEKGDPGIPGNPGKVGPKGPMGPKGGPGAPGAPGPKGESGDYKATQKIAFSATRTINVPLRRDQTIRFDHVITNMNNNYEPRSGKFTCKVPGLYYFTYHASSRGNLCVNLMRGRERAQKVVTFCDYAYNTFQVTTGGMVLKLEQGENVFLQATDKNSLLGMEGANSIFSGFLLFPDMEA
C1q (Homo sapiens), sequence (P02747 29-245, chain 3 of 3, further chain): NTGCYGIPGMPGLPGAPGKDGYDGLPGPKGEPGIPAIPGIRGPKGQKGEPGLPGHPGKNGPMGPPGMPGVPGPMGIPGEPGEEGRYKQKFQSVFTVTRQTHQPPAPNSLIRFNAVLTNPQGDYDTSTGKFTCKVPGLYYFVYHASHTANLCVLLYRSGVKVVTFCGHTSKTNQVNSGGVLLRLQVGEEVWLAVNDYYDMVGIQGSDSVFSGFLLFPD

serglycin (myeloma cell-derived), sequence (P10124 28-158): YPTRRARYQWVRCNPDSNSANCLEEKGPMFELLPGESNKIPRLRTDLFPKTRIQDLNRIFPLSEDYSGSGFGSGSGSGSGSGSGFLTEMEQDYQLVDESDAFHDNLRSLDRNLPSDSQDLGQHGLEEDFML
MBL (Homo sapiens), sequence (P11226 21-248): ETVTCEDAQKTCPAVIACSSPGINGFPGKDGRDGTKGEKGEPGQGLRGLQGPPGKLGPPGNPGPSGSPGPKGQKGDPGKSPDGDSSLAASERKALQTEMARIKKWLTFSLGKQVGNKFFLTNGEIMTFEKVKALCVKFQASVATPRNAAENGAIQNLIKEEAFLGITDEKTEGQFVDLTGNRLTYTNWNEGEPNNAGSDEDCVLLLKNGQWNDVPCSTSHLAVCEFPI

Kd (MBL (Homo sapiens)): 19 nM
Kd (C1q (Homo sapiens)): 40 nM
Substance: serglycin (myeloma cell-derived) (from UniProt P10124)
